Test results as given in the supplement of paper PMC9112550, “Optimization of the antimicrobial peptide Bac7 by deep mutational scanning” (BMC Biology, 2022).

system: Escherichia coli TOP10; assay: shrunken log2 fold change of peptide-encoding DNA abundance (4.5 h post-induction vs induction); higher = less antimicrobial activity (less host growth inhibition); conditions: time post-induction: 4.5 h; library: site-saturation at positions 5, 18, 19, 20
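Also: peptides expressed intracellularly from a pBAD plasmid library in pooled LB shake-flask culture, induced with 0.3% L-arabinose, DNA abundance read by NGS, three biological replicates, DESeq2 with apeglm shrinkage.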

RRIRRRPPRLPRPRPRPNNTPRP and RRIRSRPPRLPRPRPRPAEIPRP are within 0.2 log units of each other in “shrunken log2 fold change” value: 0.00573 for the first, -0.136 for the second.

First: RRIRGRPPRLPRPRPRPAMEPRP
Second: RRIRQRPPRLPRPRPRPKQRPRP
The “shrunken log2 fold change” value of the first is higher: 1 for the first, 0.0443 for the second.

Going from RRIRSRPPRLPRPRPRPCPWPRP to RRIRMRPPRLPRPRPRPHWQPRP, the “shrunken log2 fold change” value rises from -0.115 to 0.161.

Compared with RRIRRRPPRLPRPRPRPRGVPRP, RRIRLRPPRLPRPRPRPAAIPRP is lower in “shrunken log2 fold change” value: 0.816 for the first, -0.0299 for the second.

RRIRKRPPRLPRPRPRPMSSPRP and RRIRKRPPRLPRPRPRPFQPPRP are within 0.2 log units of each other in “shrunken log2 fold change” value: 0.0811 for the first, 0.0366 for the second.

First: RRIRDRPPRLPRPRPRPQLLPRP
Second: RRIRKRPPRLPRPRPRPNAAPRP
The “shrunken log2 fold change” value of the first is lower: 0.206 for the first, 0.986 for the second.

First: RRIRNRPPRLPRPRPRPINEPRP
Second: RRIRYRPPRLPRPRPRPEWNPRP
The “shrunken log2 fold change” value of the first is higher: -0.056 for the first, -0.861 for the second.

First: RRIRCRPPRLPRPRPRPDCDPRP
Second: RRIRPRPPRLPRPRPRPKHTPRP
The “shrunken log2 fold change” value of the first is lower: -0.812 for the first, -0.198 for the second.

Going from RRIRSRPPRLPRPRPRPKQTPRP to RRIRARPPRLPRPRPRPEIGPRP, the “shrunken log2 fold change” value rises from -0.159 to 0.675.

RRIRQRPPRLPRPRPRPAFMPRP and RRIRVRPPRLPRPRPRPMFGPRP are within 0.2 log units of each other in “shrunken log2 fold change” value: -0.0902 for the first, 0.00478 for the second.

Compared with RRIRNRPPRLPRPRPRPKGLPRP, RRIRPRPPRLPRPRPRPGFPPRP is higher in “shrunken log2 fold change” value: -0.00227 for the first, 0.355 for the second.

First: RRIRPRPPRLPRPRPRPCSSPRP
Second: RRIRLRPPRLPRPRPRPCRGPRP
The “shrunken log2 fold change” value of the first is lower: -0.467 for the first, 0.157 for the second.

First: RRIRCRPPRLPRPRPRPHMTPRP
Second: RRIRNRPPRLPRPRPRPSFYPRP
The “shrunken log2 fold change” value of the first is higher: -0.331 for the first, -0.658 for the second.

RRIRGRPPRLPRPRPRPVPIPRP and RRIRGRPPRLPRPRPRPYRDPRP are within 0.2 log units of each other in “shrunken log2 fold change” value: 0.372 for the first, 0.528 for the second.

RRIRDRPPRLPRPRPRPMGTPRP and RRIRPRPPRLPRPRPRPEHYPRP are the same in “shrunken log2 fold change” value: -0.106 for the first, -0.106 for the second.

RRIRERPPRLPRPRPRPMNLPRP and RRIRQRPPRLPRPRPRPSRQPRP are within 0.2 log units of each other in “shrunken log2 fold change” value: -0.0666 for the first, -0.101 for the second.

First: RRIRGRPPRLPRPRPRPQCFPRP
Second: RRIRLRPPRLPRPRPRPEPAPRP
The “shrunken log2 fold change” value of the first is higher: 0.352 for the first, 0.0966 for the second.

RRIRCRPPRLPRPRPRPMEHPRP and RRIRYRPPRLPRPRPRPMKKPRP are within 0.2 log units of each other in “shrunken log2 fold change” value: -0.0605 for the first, 0.0048 for the second.

Compared with RRIRVRPPRLPRPRPRPRTNPRP, RRIRRRPPRLPRPRPRPRVHPRP is higher in “shrunken log2 fold change” value: -0.42 for the first, 0.264 for the second.

Going from RRIRTRPPRLPRPRPRPGINPRP to RRIRRRPPRLPRPRPRPLQLPRP, the “shrunken log2 fold change” value rises from -0.324 to -0.101.

Compared with RRIRIRPPRLPRPRPRPPATPRP, RRIRIRPPRLPRPRPRPLLLPRP is lower in “shrunken log2 fold change” value: 0.177 for the first, -0.597 for the second.

Going from RRIRDRPPRLPRPRPRPHTQPRP to RRIRNRPPRLPRPRPRPGYIPRP, the “shrunken log2 fold change” value falls from -0.455 to -1.11.

Going from RRIRIRPPRLPRPRPRPYIKPRP to RRIRGRPPRLPRPRPRPCRMPRP, the “shrunken log2 fold change” value rises from -0.684 to 0.0426.

Compared with RRIRFRPPRLPRPRPRPMELPRP, RRIRFRPPRLPRPRPRPNFFPRP is lower in “shrunken log2 fold change” value: 0.112 for the first, -0.178 for the second.

Going from RRIRERPPRLPRPRPRPHRIPRP to RRIRPRPPRLPRPRPRPHWFPRP, the “shrunken log2 fold change” value rises from -0.229 to 0.0501.

RRIRQRPPRLPRPRPRPDCCPRP and RRIRPRPPRLPRPRPRPMRLPRP are within 0.2 log units of each other in “shrunken log2 fold change” value: -0.0188 for the first, 0.0536 for the second.

Compared with RRIRLRPPRLPRPRPRPICSPRP, RRIRARPPRLPRPRPRPRSDPRP is higher in “shrunken log2 fold change” value: -0.0252 for the first, 0.257 for the second.

First: RRIRKRPPRLPRPRPRPDRFPRP
Second: RRIRSRPPRLPRPRPRPPTAPRP
The “shrunken log2 fold change” value of the first is lower: -0.0614 for the first, 0.447 for the second.

RRIRKRPPRLPRPRPRPNMFPRP and RRIRLRPPRLPRPRPRPMYGPRP are within 0.2 log units of each other in “shrunken log2 fold change” value: -0.155 for the first, -0.179 for the second.

Going from RRIRKRPPRLPRPRPRPYCQPRP to RRIRWRPPRLPRPRPRPQAIPRP, the “shrunken log2 fold change” value rises from -0.773 to 0.204.

First: RRIRGRPPRLPRPRPRPTKDPRP
Second: RRIRMRPPRLPRPRPRPRVEPRP
The “shrunken log2 fold change” value of the first is higher: 0.7 for the first, 0.379 for the second.

First: RRIRFRPPRLPRPRPRPSTFPRP
Second: RRIRCRPPRLPRPRPRPGMAPRP
The “shrunken log2 fold change” value of the first is lower: -0.945 for the first, 0.418 for the second.

Going from RRIRTRPPRLPRPRPRPQRYPRP to RRIRARPPRLPRPRPRPTHIPRP, the “shrunken log2 fold change” value rises from -0.127 to 0.36.

RRIRVRPPRLPRPRPRPVVDPRP and RRIRERPPRLPRPRPRPHIWPRP are within 0.2 log units of each other in “shrunken log2 fold change” value: -0.0784 for the first, 0.00885 for the second.

Compared with RRIRCRPPRLPRPRPRPKHWPRP, RRIRIRPPRLPRPRPRPFPSPRP is lower in “shrunken log2 fold change” value: 0.00902 for the first, -0.953 for the second.

RRIRVRPPRLPRPRPRPQMCPRP and RRIRFRPPRLPRPRPRPIQWPRP are within 0.2 log units of each other in “shrunken log2 fold change” value: 0.00424 for the first, 0.0986 for the second.

First: RRIRARPPRLPRPRPRPWCPPRP
Second: RRIRWRPPRLPRPRPRPHGSPRP
The “shrunken log2 fold change” value of the first is lower: -0.169 for the first, 0.173 for the second.

RRIRERPPRLPRPRPRPLCGPRP and RRIRMRPPRLPRPRPRPHCHPRP are within 0.2 log units of each other in “shrunken log2 fold change” value: -0.2 for the first, -0.137 for the second.

First: RRIRNRPPRLPRPRPRPDAQPRP
Second: RRIRDRPPRLPRPRPRPHYRPRP
The “shrunken log2 fold change” value of the first is higher: -0.173 for the first, -0.562 for the second.

First: RRIRNRPPRLPRPRPRPRGCPRP
Second: RRIRHRPPRLPRPRPRPLSCPRP
The “shrunken log2 fold change” value of the first is higher: 0.366 for the first, -0.287 for the second.

RRIRFRPPRLPRPRPRPETWPRP and RRIRQRPPRLPRPRPRPCATPRP are within 0.2 log units of each other in “shrunken log2 fold change” value: 0.0692 for the first, -0.0476 for the second.

Going from RRIRGRPPRLPRPRPRPDYKPRP to RRIRRRPPRLPRPRPRPQQPPRP, the “shrunken log2 fold change” value rises from -0.0972 to 0.325.

RRIRRRPPRLPRPRPRPNRWPRP and RRIRDRPPRLPRPRPRPQICPRP are within 0.2 log units of each other in “shrunken log2 fold change” value: 0.107 for the first, -0.0334 for the second.

Going from RRIRERPPRLPRPRPRPGVAPRP to RRIRERPPRLPRPRPRPCFNPRP, the “shrunken log2 fold change” value falls from 0.146 to -0.324.

RRIRPRPPRLPRPRPRPFHSPRP and RRIRWRPPRLPRPRPRPSHKPRP are within 0.2 log units of each other in “shrunken log2 fold change” value: -0.153 for the first, -0.193 for the second.

Going from RRIRFRPPRLPRPRPRPSNDPRP to RRIRNRPPRLPRPRPRPGAPPRP, the “shrunken log2 fold change” value rises from -0.112 to 0.492.

Going from RRIRPRPPRLPRPRPRPLFDPRP to RRIRLRPPRLPRPRPRPHFLPRP, the “shrunken log2 fold change” value falls from 0.0231 to -0.499.

Compared with RRIRFRPPRLPRPRPRPFMIPRP, RRIRPRPPRLPRPRPRPKDRPRP is higher in “shrunken log2 fold change” value: -0.456 for the first, -0.114 for the second.

RRIRGRPPRLPRPRPRPMKPPRP and RRIRERPPRLPRPRPRPRIIPRP are within 0.2 log units of each other in “shrunken log2 fold change” value: 0.276 for the first, 0.0824 for the second.

Compared with RRIRFRPPRLPRPRPRPQSPPRP, RRIRKRPPRLPRPRPRPAWVPRP is higher in “shrunken log2 fold change” value: -0.13 for the first, 0.483 for the second.

First: RRIRWRPPRLPRPRPRPSYRPRP
Second: RRIRTRPPRLPRPRPRPFADPRP
The “shrunken log2 fold change” value of the first is lower: -0.895 for the first, -0.112 for the second.

Going from RRIRWRPPRLPRPRPRPYQAPRP to RRIRARPPRLPRPRPRPCATPRP, the “shrunken log2 fold change” value rises from -0.0526 to 1.06.

Compared with RRIRPRPPRLPRPRPRPYSSPRP, RRIRTRPPRLPRPRPRPEQNPRP is higher in “shrunken log2 fold change” value: -0.282 for the first, 0.189 for the second.

Compared with RRIRFRPPRLPRPRPRPWIVPRP, RRIRPRPPRLPRPRPRPQVAPRP is higher in “shrunken log2 fold change” value: -0.242 for the first, -0.0363 for the second.

For RRIRGRPPRLPRPRPRPVPPPRP, the “shrunken log2 fold change” value was 1.17.
